Measurements: patent US20180086837A1

Assays:
[1] = biological target: hCXCR4-V196E (human) (UniProt P61073); test: flow cytometry, transfected HEK293T cells; normalisation reference (column 100 nM)
[2] = biological target: cynomolgus CXCR4 (cynomolgus) (UniProt Q28474); test: as above
[3] = biological target: hCXCR4-V196E (human) (UniProt P61073); test: flow cytometry, transfected HEK293T cells; normalisation reference (column 10 nM)
[4] = biological target: cynomolgus CXCR4 (cynomolgus) (UniProt Q28474); test: as above

Chain of hCXCR4-V196E (human) (P61073 whole entry V196E): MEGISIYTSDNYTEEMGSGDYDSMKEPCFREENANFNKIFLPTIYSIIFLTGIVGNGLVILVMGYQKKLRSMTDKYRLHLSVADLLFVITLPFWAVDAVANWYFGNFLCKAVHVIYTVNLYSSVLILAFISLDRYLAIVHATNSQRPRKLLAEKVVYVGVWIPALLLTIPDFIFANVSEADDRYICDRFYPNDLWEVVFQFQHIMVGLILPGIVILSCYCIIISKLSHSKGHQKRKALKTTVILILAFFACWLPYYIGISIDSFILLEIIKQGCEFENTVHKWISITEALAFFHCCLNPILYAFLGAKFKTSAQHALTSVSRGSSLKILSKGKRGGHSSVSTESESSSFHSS
Chain of cynomolgus CXCR4 (cynomolgus) (Q28474 whole entry): as the sequence (P61073 whole entry V196E) above, with M24I, N35H, K38R, R146K, N176S, E196V counted along it

% binding relative to hCXCR4 [1]: 100% | % binding relative to hCXCR4 [2]: 100% | % binding relative to hCXCR4 [3]: 100% | % binding relative to hCXCR4 [4]: 100%
Substance: anti-CXCR4 monoclonal antibody 12G5 (R&D Systems, MAB170)
